# Reference: PMC3429642
# Molecular target: Full-length DEMETER (DME) fused with the GAL4 DNA binding domain (Arabidopsis) (UniProt Q8LK56)
# Experiment: two-hybrid
# Chain of UniProt Q8LK56 (Q8LK56 whole entry, the tested form may be a part): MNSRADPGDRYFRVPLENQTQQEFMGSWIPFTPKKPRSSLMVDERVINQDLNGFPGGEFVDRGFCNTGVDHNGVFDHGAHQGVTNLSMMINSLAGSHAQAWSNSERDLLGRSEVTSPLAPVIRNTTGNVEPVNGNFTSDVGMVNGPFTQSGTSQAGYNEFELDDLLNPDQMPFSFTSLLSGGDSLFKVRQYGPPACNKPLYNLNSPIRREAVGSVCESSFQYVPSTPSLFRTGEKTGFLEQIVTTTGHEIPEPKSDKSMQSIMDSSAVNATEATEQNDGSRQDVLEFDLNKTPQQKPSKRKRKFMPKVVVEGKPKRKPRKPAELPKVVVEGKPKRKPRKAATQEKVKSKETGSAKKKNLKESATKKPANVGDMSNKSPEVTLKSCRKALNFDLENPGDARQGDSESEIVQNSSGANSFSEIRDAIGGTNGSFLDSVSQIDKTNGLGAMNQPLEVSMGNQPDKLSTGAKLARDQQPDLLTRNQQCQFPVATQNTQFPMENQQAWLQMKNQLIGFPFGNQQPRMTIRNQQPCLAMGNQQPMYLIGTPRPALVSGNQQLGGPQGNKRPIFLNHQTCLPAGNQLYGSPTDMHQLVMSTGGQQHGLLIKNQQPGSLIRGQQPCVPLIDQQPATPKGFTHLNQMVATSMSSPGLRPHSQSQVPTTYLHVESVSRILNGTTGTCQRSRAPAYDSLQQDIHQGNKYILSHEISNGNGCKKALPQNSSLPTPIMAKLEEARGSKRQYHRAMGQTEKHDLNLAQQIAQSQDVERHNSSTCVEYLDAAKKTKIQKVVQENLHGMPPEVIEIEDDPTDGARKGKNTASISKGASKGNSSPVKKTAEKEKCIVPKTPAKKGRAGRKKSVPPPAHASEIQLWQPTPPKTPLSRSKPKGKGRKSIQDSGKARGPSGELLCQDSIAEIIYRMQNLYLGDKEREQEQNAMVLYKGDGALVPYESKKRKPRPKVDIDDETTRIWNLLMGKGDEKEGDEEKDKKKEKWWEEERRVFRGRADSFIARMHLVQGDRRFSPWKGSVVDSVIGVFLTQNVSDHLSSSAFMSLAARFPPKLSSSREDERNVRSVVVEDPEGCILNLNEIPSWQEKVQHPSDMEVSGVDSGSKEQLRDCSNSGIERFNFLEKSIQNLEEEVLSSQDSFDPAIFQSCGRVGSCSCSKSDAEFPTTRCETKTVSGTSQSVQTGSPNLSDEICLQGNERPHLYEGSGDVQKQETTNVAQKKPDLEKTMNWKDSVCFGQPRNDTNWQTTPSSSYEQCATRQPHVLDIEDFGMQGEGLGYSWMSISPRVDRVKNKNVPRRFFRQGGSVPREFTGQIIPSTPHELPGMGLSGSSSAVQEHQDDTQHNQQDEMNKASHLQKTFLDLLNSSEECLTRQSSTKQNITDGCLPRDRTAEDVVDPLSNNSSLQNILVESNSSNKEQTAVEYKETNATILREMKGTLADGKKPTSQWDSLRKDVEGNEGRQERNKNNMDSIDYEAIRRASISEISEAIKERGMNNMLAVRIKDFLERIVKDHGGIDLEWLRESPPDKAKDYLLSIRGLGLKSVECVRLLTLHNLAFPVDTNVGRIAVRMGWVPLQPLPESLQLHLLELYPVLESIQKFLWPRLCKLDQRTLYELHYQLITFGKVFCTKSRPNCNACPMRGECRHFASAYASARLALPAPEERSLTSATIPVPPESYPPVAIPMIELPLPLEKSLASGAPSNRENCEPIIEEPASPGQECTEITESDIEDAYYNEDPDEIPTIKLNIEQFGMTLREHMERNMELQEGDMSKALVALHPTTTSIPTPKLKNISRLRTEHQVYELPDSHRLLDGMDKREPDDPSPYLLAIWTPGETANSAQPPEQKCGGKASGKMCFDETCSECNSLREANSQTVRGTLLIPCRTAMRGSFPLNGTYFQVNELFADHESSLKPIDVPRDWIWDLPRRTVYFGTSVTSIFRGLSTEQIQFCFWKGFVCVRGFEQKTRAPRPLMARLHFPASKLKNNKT
substance,measurement,value
Histone H1.2 fused with the GAL4 activation domain (natural protein),β-galactosidase activity,1.67 units
